Measurements: patent publication US20160138042A1 (COMMONWEALTH SCIENTIFIC AND INDUSTRIAL RESEARCH ORGANISATION, published 2016)

B1: Sr33 CC1-125 (truncated portion of the CC domain of Sr33) (other)
chain: MDIVTGAIAKLIPKLGELLVGEYKLHKGVKKNIEDLLKELKTMNAALIKIGEVPPDQLDSQDKLWADEVRELSYVIEDAVDKFLVRVHGVEPDDNTNGFKGLMKRTTKLLKKVVDKHGIAHAIKD
notes: Expressed as both bait and prey in yeast two-hybrid; The fused GAL4 domains are not included; also called Sr33 CC125
B2: Sr33 CC1-225 (CC-NB domain of Sr33) (other)
chain: MDIVTGAIAKLIPKLGELLVGEYKLHKGVKKNIEDLLKELKTMNAALIKIGEVPPDQLDSQDKLWADEVRELSYVIEDAVDKFLVRVHGVEPDDNTNGFKGLMKRTTKLLKKVVDKHGIAHAIKDIKKELQEVAARRDRNKFDGIASIPTEAIDPRLRALYIEAAELVGIYGKRDQELMSLLSLEGDDASTKKLKKVSIVGFGGLGKTTLAKAVYEKIKGDFDCH
notes: Expressed as both bait and prey in yeast two-hybrid; The fused GAL4 domains are not included; also called Sr33 CC225

Target: the molecule itself
Test: directed yeast two-hybrid, self-association (same fragment as bait and prey)

Protein	binding result
B1	no binding
B2	no binding
